Values quoted from earlier work as cited in paper PMC10304963.

Columns and labels:
[1] = biological target: SIRPα variant 2 (Homo sapiens) (UniProt P78324)
[2] = biological target: SIRPα variant 1 (Homo sapiens) (UniProt P78324)

Kd [1]: 640 nM
Kd [2]: 740 nM
Substance: CD47 (from UniProt Q08722)
